This data set concerns the molecule itself. Put plainly: crystal structure.

The text below walks through data of PMC2857972 (The Biochemical journal, 2008).

B1: Bacillus megaterium SirC (precorrin-2 dehydrogenase), His6-tagged (enzyme)
chain: MYTVMLDLKGRSVLVVGGGTIATRRIKGFLQEGAAITVVAPTVSAEINEWEAKGQLRVKRKKVGEEDLLNVFFIVVATNDQAVNKFVKQHIKNDQLVNMASSFSDGNIQIPAQFSRGRLSLAISTDGASPLLTKRIKEDLSSNYDESYTQYTQFLYECRVLIHRLNVSKSRKHELLTEIIDDQYRLSLVKQREFLQQIEKYK
As for B1, the “stoichiometry N” value turned out to be 2.
